Laboratory results from the DeepSol protein solubility set.

test: soluble on expression in E. coli; label from the status in PepcDB or PDB records

| Sequence | soluble on expression in E. coli |
| --- | --- |
| MGSDKIHHHHHHMLKMPSLKAVKSFVAAAKYQSFTRAAEALCVTQAAISRQIRELEAYMGVELFKRVGRAVELTEAGSAFFDAAQLSFVNISQAAKRVGAYKAGKSEVTLCCSAAFAALWLSPKLPGFFNDNQDIDLNLISTQNFLSMEPGVTPDIFITKFSSVHSGYRSYPLFHDVIFPVCTPRYRDEHPELATLEGLRDSALLNLSPYGRAQVAEHIDWGVWLAFHDTDIEKRTHNRPHVFSANDYNVVINMTLANQGVALGWSHLVAESLEKGALVRPIQKEVVHKDSQHYLAFKVDRESDRGCCRLRDWLLSHFA | not soluble |
| MATRNEEILRKPDWLKIKLNTNDNYTGLKKMMREKNLHTVCEEAKCPNIHECWGARRTATFMILGAVCTRACRFCAVKTGLPNELDLNEPERVAESVELMNLKHVVITAVARDDLRDQGSNVYAETVRKVRERNPFTTIEILPSDMGGDYEALETLMASRPDILNHNIETVRRLTPRVRARATYDRTLQFLRRSKELQPDIPTKSSLMVGLGETMEEIYETMDDLRANDVDILTIGQYLQPSRKHLKVEKYYTPLEFGKMRKIAMEKGFKHCQAGPLVRSSYHADEQVNEAAKEKQRQGEEQLN | not soluble |
| MSFETKPNYLLLTNPDTPLSVCTSPYYSPSGKTASIPSSEASKPEGTNGQWSHLPTGATYVTDEFSSEFQIQNGSTAAQSGNANNYADPLSHRRYFNNVNGYNHHQFYDTASQASVSSPATSVTSSLSPPDSLSNGHTTQRHHIGKAISFCKVCGDKASGYHYGVTSCEGCKGFFRRSIQRKIDYRCLKQQVCEIKRESRNRCQYCRFKKCLDSGMSKDSVRQMKFRNAMRDDKSPDSVFVPEISTLERQEEVDAVYEAVLRAHTTFSFYTDIKIRSIVARPFNVRINEDSKMNRLNAWQIYAHEIDVDIKEVVNFVKEIPKFNFINGNDKAVLLRKNAFPLYLLRIVRGMSNRGLMLRDGRLIDFKSLQLLYGSLADEMLAFANHIITIGCTDGDIALFIVLILCQPLTTEQQFSTNFKSQLQLLEMFDFYKKVLFQKMTCRIDGCDTYKQLMKCIHELNRLNELHKQQLNILRENLSFLNLPPLVVEMFQLSTLPLPVNHNNQENQYTPAPEHQSPQPQQPTPNQQQTPVHC | not soluble |
| MGSDKIHHHHHHMTENNGFQQHVAKVYREHRGERIVPFEYQGKRYWLKQVEHLAGAMRLLKQNSTAALHKEIGILNTLSHIGAPVPAVVDYGDGYMVVEDVGNTINHLLDHTSQALWQPILNDVSVALAKLHSMQLAHGRPALRDISWQAGEVKFIDFEANQQHKSVVSQQVRDVLVFIHSLYRYIGPNNRMINQAIACYRLAGGEAIWQKAKQFLASWQWLYYFARPFRDFGGKDLKPVYWVLWHFRQAPLTLA | not soluble |
| MGSDKIHHHHHHMEKFDVIVVGGGPAGLSAAISAAQAGMKTAVIERGDYPGTKNVMGGVLYTEATNEVVPDFWKEAPLERPVIEQRYAFLSKDEILSAGYRDPAWGQPPYNAHTVLRVKFDRWLADQAVKAGVMIITETLVEDLLYHGDDVVGVRTGRAEGDLGAQVVILAEGANNFLACKAGLAKPLRPENMAVVVKEIIELPPEKIEDRFCLEPHEGATIELFGDSTDGMMGTSFIYTNKNSLSIGVGAMVHSMSEKGWSPNDLLENLKAKPYVKRLLQGGETKEYLAHLIPEGGYNAIPKLYRQGVMVVGDTAMFVNGLNREGSNLAMISGKIAGKVAAEAIQSGDLSAHGMSVYESRLRDSFVIKDLYKFRKLMPFIESNPHLLGQYPEILNQAARMYFTADGTPKAQVFSNIMDMMFKKRTKTGLVKDMFNAWRALK | not soluble |
| MIEVKHLKTLQALRNCGSLAAAAATLHQTQSALSHQFSDLEQRLGFRLFVRKSQPLRFTPQGEILLQLANQVLPQISQALQACNEPQQTRLRIAIECHSCIQWLTPALENFHKNWPQVEMDFKSGVTFDPQPALQQGELDLVMTSDILPRSGLHYSPMFDYEVRLVLAPDHPLAAKTRITPEDLASETLLIYPVQRSRLDVWRHFLQPAGVSPSLKSVDNTLLLIQMVAARMGIAALPHWVVESFERQGLVVTKTLGEGLWSRLYAAVRDGEQRQPVTEAFIRSARNHACDHLPFVKSAERPTYDAPTVRPGSPARL | soluble |
| MGSDKIHHHHHHMPTLTEIGNDQLTVQISSLGAEMQSLRTKDGQSLLWHGDAAYWGGRSPILFPIVGKAKDDTLLIDGKPYSMAQHGIARRREFTLLEAGADVCRHELTAGDETKAAYPFDFSLVLEHRLHGAALTVAATVSNRSDTPMPYGLGFHPAFLWPLPGAEGKPHTITLENGAEPPLLRLGGGLLAEEARPSPFHAGRLVLDKSQFEEDAMIFPEGAGTELTYRAEDAASLHFHFENLPNLALWQKPGAPFICIEPWHGMAARHGKSGELTERPYTVILAPGDSARHGFTVTVEA | not soluble |
| MLGKSLVKEKITDSVVSSPNGLVLLAPEMTLPVDVEENKPEESKDSAHERNCATAGVESPSNPVDSCLKLTYVEEGDNDRESNLKLLDGSVEEKEDTKKLTDIDINSLPDEVDDSHADQSDTKEQEIDDKEDKTPLSDDGCEGKAEGTKESNQQPDSNKVDNSQPLGNGGTGEELGNRTLALKREVTPTLRASPRLIQRSWRTSRVNQKFTGTTNAVLLDSPHRCV | soluble |
| MRVLVTGGSGYIGSHTCVQLLQNGHDVIILDNLCNSKRSVLPVIERLGGKHPTFVEGDIRNEALMTEILHDHAIDTVIHFAGLKAVGESVQKPLEYYDNNVNGTLRLISAMRAANVKNFIFSSAATVYGDNPKIPYVESFPTGTPQSPYGKSKLMVEQILTDLQKAQPDWSIALLRYFNPVGAHPSGDMGEDPQGIPNNLMPYIAQVAVGRRDSLAIFGNDYPTEDGTGVRDYIHVMDLADGHVVAMEKLANKPGVHIYNLGAGVGNSVLDVVNAFSKACGKPVNYHFAPRREGDLPAYWADASKADRELNWRVTRTLDEMAQDTWHWQSRHPQGYPD | soluble |
| KRFTADVEQQAEKILSQMTLDEKLSYIGGINWMYTRPLERFGIPRLKMSDGPQGLGTHGPSTAYPCALMLAATWNEQLATEYGSALGKDCRARGVHVLLGPAVNIYRAPMCGRNFEYMGEDPYLTSRMATGYIKGVQGQGVMATIKHFIANNSDYDRDHISSDIDERTLNEIYFPSFRAAVQEAEVGAVMSSYNLLNGIYTTEHPWLLKDVLRQQWGFKGILMSDWGSTHHCIPAVKGGLDLEMPAGSKMQPEELKYYLRTGDITIETIDEKVRHILQTLLAFGFRETQQPDTHIPLKNPQCAQTA | not soluble |
| MVFDPDFLNNNSEEHTNQLLNEHFGEHPNQLLKYLQHQSPEVLARVAQSVTPEIKQIISQNVQGLVGMLPAESFNVQITTDRDNLAGLLASAMMTGYFLRQMEQRMQLDHLSNQ | not soluble |
| MNLMLCCTPLQVLIARKIIELHPNEQFFGVMFGGVWDKKRTLYASKLAEVCSDSMNIDTGKDLKGFDFLKLMRQLKNKITHKGFDKVFLANLNSLWLQTYLSHVSFKELYTFDDGSDNIFPHPNLLREPGTFKYKLIKAFIGDKYSVNKLFKKIKKHYTVYPNYKNIVSNIEPISLWDNQIDCEIDGEVSFFIGQPLLNTKEENISLIKKLKDQIPFDYYFPHPAEDYRVDGVNYVESELIFEDYVFKHLSNKKLFIRSSVLLHLIYVILMKSVLLERVFQDGNSVTIHFQTLDRFIRKFLEHHHHHH | not soluble |
| MAHHHHHHMGTLEAQTQGPGSMGSLSTSISSITTNTTNLGNSTAAALGGGATYDPATGAISAPSYTTYNANGTTATNTSVGAAIDNINANGIKYFHANSTDPDSVATGTNSVAIGPNAVANVDYSVAIGSGATTSAAVPVASASVGGLTFGGFAGSAPIGVFSVGAPGAERQITNVAAGRISAASTDAVNGSQLYATNSN | soluble |
| MKFKNILFDFDDTLVDFYDAEKKAFYNLAQKYNHQPTQQDFEHFKKVNQAHWEAFQQNKLTKDEVLSQRFINYFNDYQIHVNGKEADKCFRAELAMAPVKLFDHTLEVIQQLKLNHSLYIVTNGVTETQLRRIAQTQFNEIFQDVFISEKAGFQKPMTEFFDFVFEHIGENNRNQTLIVGDSLTSDILGGKNANISTCWFNIRQKENHTSIQPDYIINDLSEMIRIVE | not soluble |
